Measurements from article PMC6787036.

Molecular target: human alpha-thrombin (Homo sapiens, UniProt P00734;P00734 328-363;364-622)
Assay: affinity chromatography (HPLC, aptamer monolith); 5 mM Mg2+, pH 8.0; eluted with 2 M NaClO4; 10 mM Tris HCl, 5 mM MgCl2 (varied 0-20 mM), pH 8.0 (varied 4-10), 0.3 mL/min, elution with 2 M NaClO4; temperature not stated

B1: TBA (15-mer thrombin binding aptamer) (structured_DNA)
DNA: GGTTGGTGTGGTTGG
modifications: 5' amino-C6 (5AmMC6), covalently immobilised on poly(EDMA-co-GMA) monolith by Schiff-base (EDA/glutaraldehyde)
binding result: binds
